According to the DeepSol protein solubility set:

Assay: soluble on expression in E. coli; label from the status in PepcDB or PDB records

Soluble on expression in E. coli, soluble:
MEIKRILVSRTDKIGDLVLSIPSFFMLKKMYPNAELVVIVRKYNVDIVKNLPYIDRIVIIDEYSKAELLEKIAYFKADVFIALYNDSYIASLARASKAKIKIGPISKLSSFFTYNKGVLQKRSLSLKNEGQYNLDLVTKLDRKRFAILYELNTKLEHHHHHH
MSLRSGVEMAQRFARYPGAVANAARLGAACAFDVRLIAPRLPDFPVPPGHTEMSYLRELAMRGAAEKYGPPHQRPDVYRQLDYELDVIEQLGFPGYFLVVWEIVEFCRSRGILCQGRGSAANSVVCYVLGITKADPIAFRLLFERFLSPERDGPPDIDVDIESGRREEVIQYVYSRYGRERAAQVATVITYRPRSAVRDMARALGYSPGQQDAWSKQLDRYGEIPRGSEADHDVPDDVVHLARQVLGFPRHLGIHSGGMVICDRPVAEVCPVEWARMPGRSVLQWDKDDCARIGVVKFDLLGLGMLSALRECFDLIETYHGVRLSLETIPPEDPAVYDMLCAADSVGVFQVESRAQMATLPRLQPRNFYDLVTEVAIIRPGPIQGGSVHPFIRRRRGREPVRYAHPLLRHSLERTYGVPLFQEQIMQMAIDVAGLTPAEADHLRQAMGAKREGHHHHHH
MDGNAPEPRYWEKMRLVAEVLKAVEGPIYIATHVDPDGDAIGSSLGLYRALKALGKEAYWVADPPRFLRFLPKEEEYSDPVEKLPPGATLVALDSAEPSRVVGVPVEGFVINIDHHGTNPRFGHLHVVDPSKAATAQMVKDLIDLLGVEWTAEIATPVLTGILTDTGNFRFANTTPEVLRVAAELLGYGVKLAELTDRLQFRPPSYFRLMGQVLSTVAFHFGGLLVTAHLPEDAGAEEDSDDFVGLIRYVEGSVVSVFLRKREEGVKVSIRSRGGVSAQNIALKLGGGGHVPAAGATLKGLDLDQAYERVLEAVREELTRAGYL
MSLIKCVCLVIEEQEKLLLVQSRNREKYYFPGGKIDIGETYKQALQRELNEELQLDIPESSLIYMHTVVGEAYPQKNMKTELNCFYTTADIDWSTLVPSQEITDLQWIDKKDEHKIAPAVITWIEEQQHFKNIEREGHHHHHH
MSLDRNEMLEFAAKLHSHLSPGVALGIKMAQIAYEKLGVNFRGKGLVGIAETAMCLPDALQVVAGTTPGNRNLIVKDYGKLALAIVRFDTREGYRVTIKKEAAKKSELIKKFLYRLGKLNKEEEKRLAEEFLNLEPEYFEVREIRLTIPVGGTKEPIVECEKCGELQPSDYVAEVDGRMVCFMCAGKGYFEEGGSHHHHHH
HHHHHHGILMMANRMILNETAWFGRGAVGALTDEVKRRGYQKALIVTDKTLVQCGVVAKVTDKMDAAGLAWAIYDGVVPNPTITVVKEGLGVFQNSGADYLIAIGGGSPQDTCKAIGIISNNPEFADVRSLEGLSPTNKPSVPILAIPTTAGTAAEVTINYVITDEEKRRKFVCVDPHDIPQVAFIDADMMDGMPPALKAATGVDALTHAIEGYITRGAWALTDALHIKAIEIIAGALRGSVAGDKDAGEEMALGQYVAGMGFSNVGLGLVHGMAHPLGAFYNTPHGVANAILLPHVMRYNADFTGEKYRDIARVMGVKVEGMSLEEARNAAVEAVFALNRDVGIPPHLRDVGVRKEDIPALAQAALDDVCTGGNPREATLEDIVELYHTAW
STQEQTPQICVVGSGPAGFYTAQHLLKHHSRAHVDIYEKQLVPFGLVRFGVAPDHPEVKNVINTFTQTARSDRCAFYGNVEVGRDVTVQELQDAYHAVVLSYGAEDHQALDIPGEELPGVFSARAFVGWYNGLPENRELAPDLSCDTAVILGQGNVALDVARILLTPPDHLEKTDITEAALGALRQSRVKTVWIVGRRGPLQVAFTIKELREMIQLPGTRPMLDPADFLGLQDRIKEAARPRKRLMELLLRTATEKPGVEEAARRASASRAWGLRFFRSPQQVLPSPDGRRAAGIRLAVTRLEGIGEATRAVPTGDVEDLPCGLVLSSIGYKSRPIDPSVPFDPKLGVVPNMEGRVVDVPGLYCSGWVKRGPTGVITTTMTDSFLTGQILLQDLKAGHLPSGPRPGSAFIKALLDSRGVWPVSFSDWEKLDAEEVSRGQASGKPREKLLDPQEMLRLLGH
MIYLFSHAGLRDLRDFIDRSTLFAFDLDGTLAPIVSDPAGIMIPPDVHERLVRLNGTASVAVVTGRARVDAARHLGFAPRFLVGNHGAEGLPGADAAEREFIGLCRGWMTQLGELLPEGEGTGIVMEDKSATLSLHYRNAPDRENAHQRILAAVSRLLPAPRRVSGKLVENLVPAAAPHKGDALRCIMRHLGCARALFVGDDVTDEDVFRLGDEAIFGIRVGNSGGSAARYFIRGQDEMAPLLDEILAVLLEHHHHHH
CEVDALKGTNESLERQMREMEENFAVEAANYQDTIGRLQDEIQNMKEEMARHLREYQDLLNVKMALDIEIATYRKLLEGEESRI
MVGQIAKEMGLRAYIVGGVVRDILLGKEVWDVDFVVEGNAIELAKELARRHGVNVHPFPEFGTAHLKIGKLKLEFATARRETYPRPGAYPKVEPASLKEDLIRRDFTINAMAISVNLEDYGTLIDYFGGLRDLKDKVIRVLHPVSFIEDPVRILRALRFAGRLNFKLSRSTEKLLKQAVNLGLLKEAPRGRLINEIKLALREDRFLEILELYRKYRVLEEIIEGFQWNEKVLQKLYALRKVVDWHALEFSEERIDYGWLYLLILISNLDYERGKHFLEEMSAPSWVRETYKFMKFKLGSLKEELKKAKENYEVYRLLKPLHTSVLLLLMLEEELKEKIKLYLEKLRKVKLPKEKIEELKKQGLKGKELGERIEELKREIMNKIKLAAALE
AVPKIRIAVPSKGRISEPAIRLLENAGVGLKDTVNRKLFSKTQHPQIEVMFSRAADIPEFVADGAADLGITGYDLIVERGSDVEILEDLKYGRASLVLAAPEDSTIRGPEDIPRGAVIATEFPGITENYLREHGIDAEVVELTGSTEIAPFIGVADLITDLSSTGTTLRMNHLRVIDTILESSVKLIANRESYATKSGIIEELRTGIRGVIDAEGKRLVMLNIDRKNLDRVRALMPGMTGPTVSEVLSDNGVVAVHAVVDEKEVFNLINRLKAVGARDILVVPIERIIP

Soluble on expression in E. coli, not soluble:
MGSDKIHHHHHHMSPKAAIHNRSGSFSDRWIAYCQQRNIPYKTVDCHSSDIIEELADCSFLMWNWSQTYAEDMLIARGLIKAVESMGIRVFPNSETCWHFDDKVAQKYLMEALGVPMVKSYVFLDRARALEWARKTEYPKVFKLRGGAGSSNVFLVNDINKAERLINKAFSTGFPPVSRWNALSERWWQFKRDKTFISFFNISRGIFRALIKNPTLERLPVQRNYAYFQDFVPDNDSDIRVIAIGKRAFGIKRMVREGDFRASGSGKILYDPELIPEACIRMTFDLAKKTRSQSLVLDFIFSDGSPLVVEMSYAFASHGYLSCPGYWRNDMTWVEGSFHPEDFMVDDLIVSSVERS
MGHHHHHHSHLCTNFFIFTGGPGSGKTAVLNELNTWGYLTVSEVARSIIQKQQADGGDAIHTGNRKAFRDLMLEQSIADYCKMQSEEKIVFFDRGIPDLYGYSKAFCGEASKEVNEAVGRFRYNKTVFIFPPWPEIYENDDERQQDYQEALQTYYAVKEGYFDCGYVLLEVPKCPIKDRANFIFQMISKNG
MQPTLGAQAGSMLFRDASGRYCASLAGYRFLSAFQPIFYKGGSLFGHEALLRVVDEGGEWRPPDRFLASLAPGMALEADRLARLIHVRNFAQSGQGGCLCLNLMPATVQEDQSGRTHLPLLNSMLQSVELDSGGVIFELPEFDVEHHGQPLLQGMRHAADMGFGLAVDDFGALPARRDKMGELCPDIIKIDRSLLLDYMAGQTQRLPALLEFGWQIGSRMLVEGIETAEQLEAMRALGVELYQGYYLGRPGELPVLRQL
MFPLNFHYEDVLRQDLLLKLNYANVMEVPGLCEIRVVPKAPYNFIIKNGKLAMEIPCGQKFIQTQRGSTGKSFRSNPFLGSNKDKGYVSDLARQSTLRGHGMSNFLVRILTVMSLLDFPVEIRKNSIQFSMETEFCEFSPELEDHFEIFEHIRGFNVTIITSANTQDETLLLWSGFLQKDEGETQLEHHHHHH
MGSDKIHHHHHHMCSDHIRLPAQLAAGDVAIRVENLSKRFAVYHTRLERLKHIVAPRRTKGFAEFWALDHVDLTIGRGEACAIIGRNGSGKSTLLQILCGTLRATSGRVAVNGRVAALLELGAGFNADFTGRENVYLNGAVLGLSHTEINERFVEIEAFAEVGDFIDQPVKTYSSGMYVRLAFAIAIHVDPQILIVDEALAVGDARFQAKCLNRIKKMQADGVTLLFVSHDVSAVRTLCDRALWLDCGKVKMLADAFSVTAQYSQFLFEGEDYAVAGNGSGSPQDSSGALQSAASQDISPSAHPEEANQSRAGACGEELMAMHRPINHWGSHVGSIVQAGIYNARGERASTFVAGEPIEVRVIFRPPLNADRKTMSVAFSLKDLRGTDLIVSTTWDQRRLDFEQAGGEACIRFRLRNQLNRGSYLLAVALEDRAGVAPQYYEYIEGAHYFTSLVEDTLFGSFVVDVEQTIEPGHSLYANARVSV
MSETFSGFDTAPVARVQAAFEEIAHRSMHDLSFLHPTMPVHVSDFTLFEGQWTGTVITPWMLSALIFPGPDQIWPRRTVGEKLGLQLPYGTMTFTVGELEGVSQYLACSLMSPLSRSLSPEEGVRLADDCARMLLSLPVSNPDAPQTSRRALLFGRRSCENA
MNEEVRELERLVPAAATGDKTALQRIISIVYPQVLRYARTRLSGGRHPTPEDVAQEICLAVATSIAKFVDQGKPFMAFVYGIASNKVADAHRLYSRDLSNPTDEVPETEIDNDTPESFALLAAGSNRVQQLLDLLGDKPREILTLRVFVGLSAEETAEIVGSTPGAVRVAQHRALATLRKAIEQETGE
MGSDKIHHHHHHMHRSKAALVLAGGGVAGAAYEIGALCAIDQVLEHLSVNEFDVYVGTSAGALISACLANNMSPRTLISVLESSLLGIDQLEPHHLYQLNITDLLYRAAHLPGALVQAIQRWVREGGEVSLLDLIETVAVGLPTGLYDSRSLEQYLRAALEQPGRSNRFADLDHELMIVATDLDTGERAIFGLPPLDNVPISLAVCASAAIPIFYRPVRIGDHDYIDGGLRGTASLDVAIERGAELIVCINPMVPFDNRRHPPGAAISDQGIQRIGNQVFRTFIHAGLHYHIKQVRRRHPEVDIILIEPSRQDRTMFAENTMRFHTRMTIARHGFESVARQLCEHYPYYRAMLARHGITISDERIRQDLRNLQMAGDNPHLVRAALVTGGSLHTAPAGLASTLAELDRLLSRLEVTR
MGSDKIHHHHHHDYEAVNTNPYGVSDGELGPLKYGARFMNMQQRVIPIGSPSLTTGPGNDLQNTDLISSGNYIGYFGNNNNWGFNNEANWNFTDSRMNYAYQNFYSQIFLPWNEIYEIAKDSDSPSEQAILEIANIVRNIAWLRATDVFGPIAYNSAGDGSIAPKFDSQEVVYRSMLADLSKSVELLNTISYSVMAQYDLIYNGNVQNWVKLANSLMLRIAVRVHFIDETLAKEYITKALDPKNGGVIEDISSEAKIKSSDKMPLLNSMLASVNEYNETRMGATIWGYLDGYKDPRLSAYFTEGTYGSGSWAQTGYFPVAPTNSKSKSETSYSAKFASRPKVDSNSPLYWFRASETYFLKAEAALYNLIGGDPKTFYEQGINISFQEQGVSGVATYLSGTGKPTGLTGSNYKYGTYNHDLSIGNTSPKWDDYTGNLSKQEEQLQKIITQKYLALYPNAVEAWTEYRRTGFPYLMKPMDEAAPGRIGASIEDCRVPERFRFAPTAYNSNPNMAEIPTLLGGGDIGATKLWWVRSNRPKQPNQ
